The record followed here is patent US20150139990A1 (DAINIPPON SUMITOMO PHARMA, published 2015).

One assay addresses T1, human CD81 mutant V135A (human, UniProt P60033 1-236, limits assumed).
T1 construct: as m30; not shown: C-terminal V5 and 6xHis tags
T1 sequence: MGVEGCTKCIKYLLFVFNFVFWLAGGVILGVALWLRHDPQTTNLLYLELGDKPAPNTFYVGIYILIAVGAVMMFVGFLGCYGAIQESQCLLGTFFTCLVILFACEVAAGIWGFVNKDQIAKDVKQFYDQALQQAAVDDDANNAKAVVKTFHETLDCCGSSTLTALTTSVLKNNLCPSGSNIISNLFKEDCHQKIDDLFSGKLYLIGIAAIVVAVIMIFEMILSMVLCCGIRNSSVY
Put plainly: ELISA. A general note: In an ELISA, binding on a coated surface is turned into a signal by an enzyme label.

The target in the next assay is T2, human CD81 mutant A164T (human, UniProt P60033 1-236, limits assumed).
T2 construct: as m30; not shown: C-terminal V5 and 6xHis tags
T2 sequence: T1 sequence with A135V, A164T
Put plainly: ELISA.

In a further assay the target is T3, human CD81 mutant L165A (human, UniProt P60033 1-236, limits assumed).
T3 construct: as m30; not shown: C-terminal V5 and 6xHis tags
T3 sequence: T1 sequence with A135V, L165A
Put plainly: ELISA.

For a further assay, the target named is T4, human CD81 mutant S168A (human, UniProt P60033 1-236, limits assumed).
T4 construct: as m30; not shown: C-terminal V5 and 6xHis tags
T4 sequence: T1 sequence with A135V, S168A
In words: ELISA.

A further assay has as its target T5, human CD81 mutant V169A (human, UniProt P60033 1-236, limits assumed).
T5 construct: as m30; not shown: C-terminal V5 and 6xHis tags
T5 sequence: T1 sequence with A135V, V169A
In words: ELISA.

The target in a further assay is T6, human CD81 mutant I194A (human, UniProt P60033 1-236, limits assumed).
T6 construct: as m30; not shown: C-terminal V5 and 6xHis tags
T6 sequence: T1 sequence with A135V, I194A
In words: ELISA.

Another assay has as its target T7, human CD81 mutant A164V (human, UniProt P60033 1-236, limits assumed).
T7 construct: as m30; not shown: C-terminal V5 and 6xHis tags
T7 sequence: T1 sequence with A135V, A164V
Put plainly: ELISA.

The next assay concerns the target T8, human CD81 mutant S168T (human, UniProt P60033 1-236, limits assumed).
T8 construct: as m30; not shown: C-terminal V5 and 6xHis tags
T8 sequence: T1 sequence with A135V, S168T
In words: ELISA.

The target of another assay is T9, human CD81 mutant V169L (human, UniProt P60033 1-236, limits assumed).
T9 construct: as m30; not shown: C-terminal V5 and 6xHis tags
T9 sequence: T1 sequence with A135V, V169L
Put plainly: ELISA.

The target in assay [1] is T10, human CD81 on CD81-expressing cells (Jurkat E6.1, human PBMC, Ramos) (human, UniProt P60033 1-236).
T10 sequence: T1 sequence with A135V
Put plainly: cell-based or functional assay.

Residue numbers refer to the chain shown, from its start. Numbers in names are those of the source.

B1: 002-F05 (antibody, human IgG4 S228P, lambda, V domains shown)
VH: EVQLLESGGGLVQPGGSLRLSCAASGFTFSSNYMSWVRQAPGKGLEWVSYISSSSTYTDYADSVKGRFTISRDNSKNTLYLQMNSLRAEDTAVYYCARYSYGRDDFDYWGQGTLVTVSS
VL: QSVLTQPASASGTPGQRVTISCTGSTSNIGAGYDTHWYQQLPGTAPKLLIYGNSNRPSGVPDRFSGSKSGTSASLAISGLRSEDEADYYCQSYDTNLNVWVFGGGTKLTVLG
notes: IgG4 S228P
In the case of B1, the relative binding affinity with human CD81 mutant V135A, in the assay with human CD81 mutant A164T, with human CD81 mutant L165A, in the assay with human CD81 mutant S168A, in the assay with human CD81 mutant V169A and in the assay with human CD81 mutant I194A was < 20% each time. Moreover, the relative binding affinity in the assay with human CD81 mutant A164V, with human CD81 mutant S168T and with human CD81 mutant V169L was < 20% in each case. In addition, the “Jurkat chemotaxis (% of control IgG4) at 0.001 µg/mL” value in [1] stood at 102%. Moreover, in assay [1], the “Jurkat chemotaxis (% of control IgG4) at 0.01 µg/mL” value worked out at 79%. Besides, the “Jurkat chemotaxis (% of control IgG4) at 0.1 µg/mL” value in [1] was found to be 27%. In addition, in assay [1], the “Jurkat chemotaxis (% of control IgG4) at 1 µg/mL” value came out at 5%. Besides, in assay [1], the “Jurkat chemotaxis (% of control IgG4) at 10 µg/mL” value is 7%.
